Results from patent publication US20210032299A1 (Eli Lilly, published 2021).
Starred links: 1 amine or outer side, 2 acyl side, 3 side chain; linkers in the order of their positions; H or OH if unused. Non-standard residues stand in square brackets, D forms with d. Groups on a side chain read outwards from the residue. No end group written: not given here. *: point of attachment. C20 diacid = O=C(O)CCCCCCCCCCCCCCCCCCC(=O)*; γGlu = O=C(O)[C@H](CCC(=O)[*:2])N[*:1]; αMeY = C[C@](N)(Cc1ccc(O)cc1)C(=O)O; 4Pal = N[C@@H](Cc1ccncc1)C(=O)O; αMeL = CC(C)C[C@](C)(N)C(=O)O; AEEA = NCCOCCOCC(=O)O; Aib = CC(C)(N)C(=O)O

B1: Example 90 (peptide)
peptide: Y[Aib]EGTFISDYSI[αMeL]LDKK([AEEA-AEEA-γGlu-C20 diacid])HQ[Aib]DFVE[αMeY]LLEAGPSSGAPPPS-NH2
modifications: N-terminus assumed
SMILES: CC[C@H](C)[C@H](NC(=O)[C@H](Cc1ccccc1)NC(=O)[C@@H](NC(=O)CNC(=O)[C@H](CCC(=O)O)NC(=O)C(C)(C)NC(=O)[C@@H](N)Cc1ccc(O)cc1)[C@@H](C)O)C(=O)N[C@@H](CO)C(=O)N[C@@H](CC(=O)O)C(=O)N[C@@H](Cc1ccc(O)cc1)C(=O)N[C@@H](CO)C(=O)N[C@H](C(=O)N[C@@](C)(CC(C)C)C(=O)N[C@@H](CC(C)C)C(=O)N[C@@H](CC(=O)O)C(=O)N[C@@H](CCCCN)C(=O)N[C@@H](CCCCNC(=O)COCCOCCNC(=O)COCCOCCNC(=O)CC[C@H](NC(=O)CCCCCCCCCCCCCCCCCCC(=O)O)C(=O)O)C(=O)N[C@@H](Cc1c[nH]cn1)C(=O)N[C@@H](CCC(N)=O)C(=O)NC(C)(C)C(=O)N[C@@H](CC(=O)O)C(=O)N[C@@H](Cc1ccccc1)C(=O)N[C@H](C(=O)N[C@@H](CCC(=O)O)C(=O)N[C@@](C)(Cc1ccc(O)cc1)C(=O)N[C@@H](CC(C)C)C(=O)N[C@@H](CC(C)C)C(=O)N[C@@H](CCC(=O)O)C(=O)N[C@@H](C)C(=O)NCC(=O)N1CCC[C@H]1C(=O)N[C@@H](CO)C(=O)N[C@@H](CO)C(=O)NCC(=O)N[C@@H](C)C(=O)N1CCC[C@H]1C(=O)N1CCC[C@H]1C(=O)N1CCC[C@H]1C(=O)N[C@@H](CO)C(N)=O)C(C)C)[C@@H](C)CC
B2: Example 89 (peptide)
peptide: Y[Aib]EGTLISDYSI[αMeL]LDKK([AEEA-AEEA-γGlu-C20 diacid])HQ[Aib]DFVE[4Pal]LLEAGPSSGAPPPS-NH2
modifications: N-terminus assumed
SMILES: CC[C@H](C)[C@H](NC(=O)[C@H](CC(C)C)NC(=O)[C@@H](NC(=O)CNC(=O)[C@H](CCC(=O)O)NC(=O)C(C)(C)NC(=O)[C@@H](N)Cc1ccc(O)cc1)[C@@H](C)O)C(=O)N[C@@H](CO)C(=O)N[C@@H](CC(=O)O)C(=O)N[C@@H](Cc1ccc(O)cc1)C(=O)N[C@@H](CO)C(=O)N[C@H](C(=O)N[C@@](C)(CC(C)C)C(=O)N[C@@H](CC(C)C)C(=O)N[C@@H](CC(=O)O)C(=O)N[C@@H](CCCCN)C(=O)N[C@@H](CCCCNC(=O)COCCOCCNC(=O)COCCOCCNC(=O)CC[C@H](NC(=O)CCCCCCCCCCCCCCCCCCC(=O)O)C(=O)O)C(=O)N[C@@H](Cc1c[nH]cn1)C(=O)N[C@@H](CCC(N)=O)C(=O)NC(C)(C)C(=O)N[C@@H](CC(=O)O)C(=O)N[C@@H](Cc1ccccc1)C(=O)N[C@H](C(=O)N[C@@H](CCC(=O)O)C(=O)N[C@@H](Cc1ccncc1)C(=O)N[C@@H](CC(C)C)C(=O)N[C@@H](CC(C)C)C(=O)N[C@@H](CCC(=O)O)C(=O)N[C@@H](C)C(=O)NCC(=O)N1CCC[C@H]1C(=O)N[C@@H](CO)C(=O)N[C@@H](CO)C(=O)NCC(=O)N[C@@H](C)C(=O)N1CCC[C@H]1C(=O)N1CCC[C@H]1C(=O)N1CCC[C@H]1C(=O)N[C@@H](CO)C(N)=O)C(C)C)[C@@H](C)CC
B3: Example 88 (peptide)
peptide: YXEGTXISDYSIXLDKKHQXDFVEXLLEAGPSSGAPPPS
modifications: Aib2; Iva6; αMeL13; K17((2-[2-(2-Amino-ethoxy)-ethoxy]-acetyl)2-(γ-Glu)-CO-(CH2)18-CO2H); Aib20; 4-Pal25; C-terminal amide
B4: Example 91 (peptide)
peptide: Y[Aib]EGTFISDYSI[αMeL]LDKK([AEEA-AEEA-γGlu-C20 diacid])HQ[Aib]DFVE[αMeY]LLEGGPSSGAPPPS-NH2
modifications: N-terminus assumed
SMILES: CC[C@H](C)[C@H](NC(=O)[C@H](Cc1ccccc1)NC(=O)[C@@H](NC(=O)CNC(=O)[C@H](CCC(=O)O)NC(=O)C(C)(C)NC(=O)[C@@H](N)Cc1ccc(O)cc1)[C@@H](C)O)C(=O)N[C@@H](CO)C(=O)N[C@@H](CC(=O)O)C(=O)N[C@@H](Cc1ccc(O)cc1)C(=O)N[C@@H](CO)C(=O)N[C@H](C(=O)N[C@@](C)(CC(C)C)C(=O)N[C@@H](CC(C)C)C(=O)N[C@@H](CC(=O)O)C(=O)N[C@@H](CCCCN)C(=O)N[C@@H](CCCCNC(=O)COCCOCCNC(=O)COCCOCCNC(=O)CC[C@H](NC(=O)CCCCCCCCCCCCCCCCCCC(=O)O)C(=O)O)C(=O)N[C@@H](Cc1c[nH]cn1)C(=O)N[C@@H](CCC(N)=O)C(=O)NC(C)(C)C(=O)N[C@@H](CC(=O)O)C(=O)N[C@@H](Cc1ccccc1)C(=O)N[C@H](C(=O)N[C@@H](CCC(=O)O)C(=O)N[C@@](C)(Cc1ccc(O)cc1)C(=O)N[C@@H](CC(C)C)C(=O)N[C@@H](CC(C)C)C(=O)N[C@@H](CCC(=O)O)C(=O)NCC(=O)NCC(=O)N1CCC[C@H]1C(=O)N[C@@H](CO)C(=O)N[C@@H](CO)C(=O)NCC(=O)N[C@@H](C)C(=O)N1CCC[C@H]1C(=O)N1CCC[C@H]1C(=O)N1CCC[C@H]1C(=O)N[C@@H](CO)C(N)=O)C(C)C)[C@@H](C)CC
B5: Example 86 (peptide)
peptide: Y[Aib]EGTFISDYSI[αMeL]LDEK([AEEA-AEEA-γGlu-C20 diacid])HQ[Aib]DFVE[4Pal]LLAGGPSSGAPPPS-NH2
modifications: N-terminus assumed
SMILES: CC[C@H](C)[C@H](NC(=O)[C@H](Cc1ccccc1)NC(=O)[C@@H](NC(=O)CNC(=O)[C@H](CCC(=O)O)NC(=O)C(C)(C)NC(=O)[C@@H](N)Cc1ccc(O)cc1)[C@@H](C)O)C(=O)N[C@@H](CO)C(=O)N[C@@H](CC(=O)O)C(=O)N[C@@H](Cc1ccc(O)cc1)C(=O)N[C@@H](CO)C(=O)N[C@H](C(=O)N[C@@](C)(CC(C)C)C(=O)N[C@@H](CC(C)C)C(=O)N[C@@H](CC(=O)O)C(=O)N[C@@H](CCC(=O)O)C(=O)N[C@@H](CCCCNC(=O)COCCOCCNC(=O)COCCOCCNC(=O)CC[C@H](NC(=O)CCCCCCCCCCCCCCCCCCC(=O)O)C(=O)O)C(=O)N[C@@H](Cc1c[nH]cn1)C(=O)N[C@@H](CCC(N)=O)C(=O)NC(C)(C)C(=O)N[C@@H](CC(=O)O)C(=O)N[C@@H](Cc1ccccc1)C(=O)N[C@H](C(=O)N[C@@H](CCC(=O)O)C(=O)N[C@@H](Cc1ccncc1)C(=O)N[C@@H](CC(C)C)C(=O)N[C@@H](CC(C)C)C(=O)N[C@@H](C)C(=O)NCC(=O)NCC(=O)N1CCC[C@H]1C(=O)N[C@@H](CO)C(=O)N[C@@H](CO)C(=O)NCC(=O)N[C@@H](C)C(=O)N1CCC[C@H]1C(=O)N1CCC[C@H]1C(=O)N1CCC[C@H]1C(=O)N[C@@H](CO)C(N)=O)C(C)C)[C@@H](C)CC
B6: Example 92 (peptide)
peptide: Y[Aib]EGTFISDYSI[αMeL]LDKIHQ[Aib]DFVEYK([AEEA-AEEA-γGlu-C20 diacid])LEQGPSSGAPPPS-NH2
modifications: N-terminus assumed
SMILES: CC[C@H](C)[C@H](NC(=O)[C@H](CCCCN)NC(=O)[C@H](CC(=O)O)NC(=O)[C@H](CC(C)C)NC(=O)[C@](C)(CC(C)C)NC(=O)[C@@H](NC(=O)[C@H](CO)NC(=O)[C@H](Cc1ccc(O)cc1)NC(=O)[C@H](CC(=O)O)NC(=O)[C@H](CO)NC(=O)[C@@H](NC(=O)[C@H](Cc1ccccc1)NC(=O)[C@@H](NC(=O)CNC(=O)[C@H](CCC(=O)O)NC(=O)C(C)(C)NC(=O)[C@@H](N)Cc1ccc(O)cc1)[C@@H](C)O)[C@@H](C)CC)[C@@H](C)CC)C(=O)N[C@@H](Cc1c[nH]cn1)C(=O)N[C@@H](CCC(N)=O)C(=O)NC(C)(C)C(=O)N[C@@H](CC(=O)O)C(=O)N[C@@H](Cc1ccccc1)C(=O)N[C@H](C(=O)N[C@@H](CCC(=O)O)C(=O)N[C@@H](Cc1ccc(O)cc1)C(=O)N[C@@H](CCCCNC(=O)COCCOCCNC(=O)COCCOCCNC(=O)CC[C@H](NC(=O)CCCCCCCCCCCCCCCCCCC(=O)O)C(=O)O)C(=O)N[C@@H](CC(C)C)C(=O)N[C@@H](CCC(=O)O)C(=O)N[C@@H](CCC(N)=O)C(=O)NCC(=O)N1CCC[C@H]1C(=O)N[C@@H](CO)C(=O)N[C@@H](CO)C(=O)NCC(=O)N[C@@H](C)C(=O)N1CCC[C@H]1C(=O)N1CCC[C@H]1C(=O)N1CCC[C@H]1C(=O)N[C@@H](CO)C(N)=O)C(C)C

target: human GLP-1 receptor (human, UniProt P43220 24-463); test: cell-based or functional assay

Binder | hGLP1R cAMP Rel EC50
B1 | > 5000 nM
B2 | > 5000 nM
B3 | > 5000 nM
B4 | 530 nM
B5 | > 5000 nM
B6 | > 5000 nM

target: T1, human glucose-dependent insulinotropic peptide receptor (human, UniProt P48546 22-466); test: cell-based or functional assay
T1 sequence (looked up): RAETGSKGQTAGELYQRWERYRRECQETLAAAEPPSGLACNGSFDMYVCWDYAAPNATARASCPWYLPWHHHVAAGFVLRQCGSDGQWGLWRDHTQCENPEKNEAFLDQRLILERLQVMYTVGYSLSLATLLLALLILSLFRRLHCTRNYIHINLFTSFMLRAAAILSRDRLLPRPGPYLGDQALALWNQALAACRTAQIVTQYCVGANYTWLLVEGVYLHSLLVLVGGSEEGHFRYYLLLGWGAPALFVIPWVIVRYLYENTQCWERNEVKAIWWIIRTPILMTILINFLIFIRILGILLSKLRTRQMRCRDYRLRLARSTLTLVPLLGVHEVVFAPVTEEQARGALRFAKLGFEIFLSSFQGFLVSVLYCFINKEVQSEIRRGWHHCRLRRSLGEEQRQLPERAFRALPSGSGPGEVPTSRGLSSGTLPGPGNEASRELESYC

Binder | hGIPR cAMP Rel EC50
B1 | 0.0272 nM
B2 | 0.00687 nM
B3 | 0.0031 nM
B4 | 0.0321 nM
B5 | 0.03 nM
B6 | 0.0191 nM

target: human glucagon receptor (human, UniProt P47871 26-477); test: cell-based or functional assay
Sequence (P47871 26-477): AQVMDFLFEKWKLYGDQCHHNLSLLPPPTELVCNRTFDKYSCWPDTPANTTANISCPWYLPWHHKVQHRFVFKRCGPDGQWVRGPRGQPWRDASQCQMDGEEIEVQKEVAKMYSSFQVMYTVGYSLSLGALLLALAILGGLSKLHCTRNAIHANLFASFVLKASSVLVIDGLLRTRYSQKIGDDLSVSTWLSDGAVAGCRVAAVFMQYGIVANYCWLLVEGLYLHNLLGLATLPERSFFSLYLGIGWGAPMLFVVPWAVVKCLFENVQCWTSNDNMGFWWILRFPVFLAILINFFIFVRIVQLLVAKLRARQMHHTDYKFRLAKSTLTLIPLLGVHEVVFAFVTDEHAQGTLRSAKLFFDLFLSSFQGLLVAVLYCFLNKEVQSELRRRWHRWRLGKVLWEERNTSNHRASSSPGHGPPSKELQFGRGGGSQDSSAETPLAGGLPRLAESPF

Binder | hGcgR cAMP Rel EC50
B1 | > 5000 nM
B2 | > 5000 nM
B3 | 1670 nM
B4 | 289 nM
B5 | > 5000 nM
B6 | > 5000 nM
